Source: publication PMC13389011, “Expedient single-round selection of hyper-modified aptamer targeting insulin receptor from over-represented dually nucleobase-modified DNA libraries”

Biological target: Human insulin receptor ectodomain (HIR) (Homo sapiens, UniProt P06213-2;P06213-2 28-746;751-944)
Assay: fluorescent Ni-plate binding assay (FNBA); PBS (1.5 mM KH2PO4, 8.1 mM Na2HPO4, 2.7 mM KCl, 137 mM NaCl) with 5 mM MgCl2, pH 7.4; MST with 0.1% Pluronic F-127 at 25 C; FNBA at room temperature; high values mean tight binding
Settings: protein: commercial; tags: His-tag; chain copies: 2;2; label: 5'-Cy5

Sequence of Human insulin receptor ectodomain (HIR) (Homo sapiens, UniProt P06213-2;P06213-2 28-746;751-944) (P06213 other isoform, or with tags, fused parts or gaps, chain 1 of 2): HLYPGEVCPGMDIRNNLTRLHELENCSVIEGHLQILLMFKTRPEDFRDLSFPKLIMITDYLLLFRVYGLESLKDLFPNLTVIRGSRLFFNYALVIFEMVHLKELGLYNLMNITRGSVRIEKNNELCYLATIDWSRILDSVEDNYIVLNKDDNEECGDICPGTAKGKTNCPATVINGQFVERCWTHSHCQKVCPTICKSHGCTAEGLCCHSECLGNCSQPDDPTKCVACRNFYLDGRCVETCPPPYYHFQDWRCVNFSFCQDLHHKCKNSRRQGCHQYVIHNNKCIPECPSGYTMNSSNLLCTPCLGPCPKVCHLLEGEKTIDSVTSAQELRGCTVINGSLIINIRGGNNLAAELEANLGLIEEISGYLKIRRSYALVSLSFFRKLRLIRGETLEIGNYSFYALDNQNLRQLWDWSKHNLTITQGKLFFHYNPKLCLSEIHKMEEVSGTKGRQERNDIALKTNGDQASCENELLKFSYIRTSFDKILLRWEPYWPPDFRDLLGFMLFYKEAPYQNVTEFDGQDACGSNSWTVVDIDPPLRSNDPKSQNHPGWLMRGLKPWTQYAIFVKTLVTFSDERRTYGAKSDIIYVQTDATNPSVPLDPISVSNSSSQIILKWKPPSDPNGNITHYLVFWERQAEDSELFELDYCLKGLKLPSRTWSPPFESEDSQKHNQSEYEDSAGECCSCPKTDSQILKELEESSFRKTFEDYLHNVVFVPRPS
Sequence of Human insulin receptor ectodomain (HIR) (Homo sapiens, UniProt P06213-2;P06213-2 28-746;751-944) (P06213 763-956, chain 2 of 2): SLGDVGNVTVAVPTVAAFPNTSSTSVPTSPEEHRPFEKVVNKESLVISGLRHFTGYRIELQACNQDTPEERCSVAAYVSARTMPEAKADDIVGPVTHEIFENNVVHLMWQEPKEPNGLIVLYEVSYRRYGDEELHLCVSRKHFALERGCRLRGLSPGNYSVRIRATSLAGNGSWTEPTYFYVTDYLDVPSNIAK

Binder	binding signal [a.u. fluorescence]
HIR-6_N (ssDNA) DNA: CATGACGCTCACTGTATCTCGCGTTTAACGTAACAGCGATGTCTCTCATGATGTC	184 ± 176
HIR-8_N (ssDNA) DNA: CATGACGCTCACTGTATCTCGCCTTTAACGTAAGAGCGATGTCTCTCATGATGTC	553 ± 165
CATGACGCTCACTGTATCTCGCGUUUAACGUAACAGCGAUGUCUCUCAUG (XNA, DNA backbone; 7-deaza-7-(indolyl-ethyl)-dA (dAAIn) at 27,28,32,33,35,39,48; 5-(phenyl-ethynyl)-dU (dUEPh) at 24,25,26,31,40,42,44,46,49) [HIR-6_T1]	26300
CATGACGCTCACTGTATCTCGCGUUUAACGUAACAGCGAUGUCUC (XNA, DNA backbone; 7-deaza-7-(indolyl-ethyl)-dA (dAAIn) at 27,28,32,33,35,39; 5-(phenyl-ethynyl)-dU (dUEPh) at 24,25,26,31,40,42,44) [HIR-6_T2]	30900
CATGACGCTCACTGTATCTCGCGUUUAACGUAACAGCGAU (XNA, DNA backbone; 7-deaza-7-(indolyl-ethyl)-dA (dAAIn) at 27,28,32,33,35,39; 5-(phenyl-ethynyl)-dU (dUEPh) at 24,25,26,31,40) [HIR-6_T3]	19900
CGCTCACTGTATCTCGCGUUUAACGUAACAGCGAUGUCUCUCAUGAUGUC (XNA, DNA backbone; 7-deaza-7-(indolyl-ethyl)-dA (dAAIn) at 22,23,27,28,30,34,43,46; 5-(phenyl-ethynyl)-dU (dUEPh) at 19,20,21,26,35,37,39,41,44,47,49) [HIR-6_T4]	44700
ACTGTATCTCGCGUUUAACGUAACAGCGAUGUCUCUCAUGAUGUC (XNA, DNA backbone; 7-deaza-7-(indolyl-ethyl)-dA (dAAIn) at 17,18,22,23,25,29,38,41; 5-(phenyl-ethynyl)-dU (dUEPh) at 14,15,16,21,30,32,34,36,39,42,44) [HIR-6_T5]	45900 ± 733
TATCTCGCGUUUAACGUAACAGCGAUGUCUCUCAUGAUGUC (XNA, DNA backbone; 7-deaza-7-(indolyl-ethyl)-dA (dAAIn) at 13,14,18,19,21,25,34,37; 5-(phenyl-ethynyl)-dU (dUEPh) at 10,11,12,17,26,28,30,32,35,38,40) [HIR-6_T6]	45500
CGCTCACTGTATCTCGCGUUUAACGUAACAGCGAU (XNA, DNA backbone; 7-deaza-7-(indolyl-ethyl)-dA (dAAIn) at 22,23,27,28,30,34; 5-(phenyl-ethynyl)-dU (dUEPh) at 19,20,21,26,35) [HIR-6_T7]	16500
ACTGTATCTCGCGUUUAACGUAACAGCGAU (XNA, DNA backbone; 7-deaza-7-(indolyl-ethyl)-dA (dAAIn) at 17,18,22,23,25,29; 5-(phenyl-ethynyl)-dU (dUEPh) at 14,15,16,21,30) [HIR-6_T8]	13400
CGCTCACTGTATCTCGCGUUUAACGUAACAGCGAUGUCUC (XNA, DNA backbone; 7-deaza-7-(indolyl-ethyl)-dA (dAAIn) at 22,23,27,28,30,34; 5-(phenyl-ethynyl)-dU (dUEPh) at 19,20,21,26,35,37,39) [HIR-6_T9]	24700
HIR-6_M2 (XNA, DNA backbone; 7-deaza-7-(indolyl-ethyl)-dA (dAAIn) at 27,28,32,33,35,39; 5-(phenyl-ethynyl)-dU (dUEPh) at 24,25,26,31,40) DNA: CATGACGCTCACTGTATCTCGCGUUUAACGUAACAGCGAUGTCTCTCATGATGTC	28300

Same assay, conditions: protein: commercial; tags: His-tag; chain copies: 2;2; label: 5'-Cy5; hairpin, stem 18-22/36-40, A35 bulge

Binder	binding signal [a.u. fluorescence]
HIR-6 (XNA, DNA backbone; 7-deaza-7-(indolyl-ethyl)-dA (dAAIn) at 27,28,32,33,35,39,48,51; 5-(phenyl-ethynyl)-dU (dUEPh) at 24,25,26,31,40,42,44,46,49,52,54) DNA: CATGACGCTCACTGTATCTCGCGUUUAACGUAACAGCGAUGUCUCUCAUGAUGUC	45000 ± 766

Biological target: Human insulin receptor ectodomain (HIR) (Homo sapiens, UniProt P06213-2 28-944)
Assay: FNBA; IB: PBS (1.5 mM KH2PO4, 8.1 mM Na2HPO4, 2.7 mM KCl, 137 mM NaCl) + 5 mM MgCl2, pH 7.4; MST +0.1% Pluronic F-127, 25 C; SPR 25 C; FNBA and BLI r.t.
Settings: protein: commercial; tags: His-tag; chain copies: 2; label: 5'-Cy5

Sequence of Human insulin receptor ectodomain (HIR) (Homo sapiens, UniProt P06213-2 28-944) (P06213 other isoform, or with tags, fused parts or gaps): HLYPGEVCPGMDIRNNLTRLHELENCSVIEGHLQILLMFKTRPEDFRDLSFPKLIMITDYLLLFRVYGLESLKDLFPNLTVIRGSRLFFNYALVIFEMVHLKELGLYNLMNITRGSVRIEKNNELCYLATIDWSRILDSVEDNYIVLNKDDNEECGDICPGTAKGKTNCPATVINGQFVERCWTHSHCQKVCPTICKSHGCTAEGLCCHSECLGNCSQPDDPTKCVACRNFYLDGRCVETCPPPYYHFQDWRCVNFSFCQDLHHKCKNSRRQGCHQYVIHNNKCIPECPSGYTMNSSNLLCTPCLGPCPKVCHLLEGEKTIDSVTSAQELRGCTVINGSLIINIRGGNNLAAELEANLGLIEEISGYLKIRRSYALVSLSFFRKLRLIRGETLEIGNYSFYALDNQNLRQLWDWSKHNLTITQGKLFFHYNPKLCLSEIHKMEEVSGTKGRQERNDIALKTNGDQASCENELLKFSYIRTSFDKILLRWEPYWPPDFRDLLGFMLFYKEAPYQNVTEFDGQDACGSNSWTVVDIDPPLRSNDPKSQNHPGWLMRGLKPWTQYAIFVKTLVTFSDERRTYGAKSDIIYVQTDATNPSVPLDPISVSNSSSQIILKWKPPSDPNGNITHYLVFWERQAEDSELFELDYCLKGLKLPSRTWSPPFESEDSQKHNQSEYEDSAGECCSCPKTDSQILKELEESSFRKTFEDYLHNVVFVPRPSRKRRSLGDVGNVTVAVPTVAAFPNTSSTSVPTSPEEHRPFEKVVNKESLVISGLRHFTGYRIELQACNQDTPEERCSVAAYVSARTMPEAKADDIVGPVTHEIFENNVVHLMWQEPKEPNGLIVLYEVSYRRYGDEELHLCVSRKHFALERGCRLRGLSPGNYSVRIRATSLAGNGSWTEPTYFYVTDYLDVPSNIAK

Binder	binding result
HIR-6_N (ssDNA) DNA: CATGACGCTCACTGTATCTCGCGTTTAACGTAACAGCGATGTCTCTCATGATGTC	no binding
HIR-8_N (ssDNA) DNA: CATGACGCTCACTGTATCTCGCCTTTAACGTAAGAGCGATGTCTCTCATGATGTC	no binding
